Experimental data from patent US10960048B2, “Alpha-1-microglobulin for use in the protection of kidneys in radionuclide therapy” (Guard Therapeutics International AB, priority 2015, dated 2021).

B1: α1-microglobulin (protein, listed as Homo sapiens)
chain: MHHHHHHHHGGGGGIEGRGPVPTPPDNIQVQENFNISRIYGKWYNLAIGSTCPWLKKIMDRMTVSTLVLGEGATEAEISMTSTRWRKGVCEETSGAYEKTDTDGKFLYHKSKWNITMESYVVHTNYDEYAIFLTKKFSRHHGPTITAKLYGRAPQLRETLLQDFRVVAQGVGIPEDSIFTMADRGECVPGEQEPEPILIPR
notes: Recombinant human A1M expressed in E. coli
B2: ^125I-A1M: Recombinant human A1M radiolabelled with 125I using the chloramine T method (protein, UniProt P02760 20-203, looked up)
Alpha-1-microglobulin: GPVPTPPDNIQVQENFNISRIYGKWYNLAIGSTCPWLKKIMDRMTVSTLVLGEGATEAEISMTSTRWRKGVCEETSGAYEKTDTDGKFLYHKSKWNITMESYVVHTNYDEYAIFLTKKFSRHHGPTITAKLYGRAPQLRETLLQDFRVVAQGVGIPEDSIFTMADRGECVPGEQEPEPILIPRV
modifications: Alpha-1-microglobulin 125I radiolabel

Legend:
[1] = test system: ^177Lu-octreotide PRRT kidney damage mouse model; test: Short-term radioprotection of kidneys with A1M in PRRT (^177Lu-octreotide PRRT kidney damage mouse model)
Experimental: NB, ^177Lu-DOTATATE and A1M are injected separately at T=0. Analytic Methods:
The mice were left for 1 day or 8 days, and then sacrificed with sampling of plasma and urine, as described above.

[2] = patients treated with PRRT; cited from earlier work
[3] = mouse, in vivo, iv
Experimental: Organ-specific uptake values were calculated as percent injected activity per gram of tissue (% IA/g) or percent injected activity (% IA).

[4] = SDS-PAGE / Western blotting of injected non-labelled A1M in kidneys and serum; format: in vivo, NMRI mice
Experimental: SDS-PAGE analysis was performed on kidneys and serum from animals that had been injected i.v. with non-labeled A1M (100 μl/animal, 1.5 mg/ml). Animals were terminated at 10, 20 and 60 minutes post-injection, blood and kidneys were sampled and kidneys were washed and placed in 1 ml PBS. Following mechanical tissue homogenization, tissue was centrifuged at 10,000×g for 10 minutes and supernatant was transferred to a new tube and used for further analysis as describe below. Serum was obtained from the blood samples by centrifugation at 1,000×g for 10 minutes. SDS-PAGE gels were run under reducing conditions and the separated proteins were transferred to polyvinylidene difluoride (PVDF) membranes (Immobilon-P, Millipore, Bedford, Mass., USA) using Trans-Blot Turbo transfer system (Bio-Rad, Delaware, USA). […] The membranes were developed using a ChemiDoc MP Imaging system (BioRad).

[5] = Immunohistochemistry and confocal fluorescence microscopy of A1M and octreotide-647 in kidney sections; parameters: species or system mice; details: mouse, in vivo
Experimental: However, only wild-type data are included. After euthanization, kidneys were removed directly frozen and embedded in Tissue Tec. […] Serial sectioning was performed, collecting 3-4 sections per slide, of which adjacent slides were used for either chromogen immunohistochemistry (IHC) or immunofluorescence (IF) labeling. Sections were post-fixed in 4% paraformaldehyde (PFA, Sigma, St. Louis, Mo., USA, dissolved in PBS, 0.1 M, pH 7.4) for 15 minutes, and rinsed in PBS two times for 5 minutes. For single labeling of […], sections were incubated with 0.03% hydrogen peroxide (H2O2, Merck, Darmstadt, Germany) for five minutes for chromogen visualization (IHC). For both chromogen and fluorescence visualization sections were incubated with 1% bovine serum albumin (BSA, Sigma, St. Louis, Mo., USA; diluted in PBS) for 30 minutes. Sections were then incubated with rabbit anti-human […] […] The choices of optical sections and scan depths were determined from the centre position of the majority of nuclei (DAPI labeling) in the scanned field. Sequential scanning was performed of channels displaying AF488, HiLyte Fluor 647, DAPI and Texas Red fluorescence. For each channel the renal profile with the highest fluorescence intensities was selected as a reference, from which the acquisition settings (laser power, PMT detector gain, digital offset) were optimized and used for all scanned areas. […]

[6] = from blood stream; cited from earlier work
[7] = in vivo, iv

| Molecule | plasma creatinine levels (marker of GFR) versus control ([1]; 150 MBq, after 1 and 8 days) | albumin concentrations in urine (proteinuria) versus control ([1]; 150 MBq, after 1 and 8 days, more pronounced after 1 day) | creatinine clearance loss [2] | maximum of injected substance found per gram kidney tissue [3] | time of maximum (peak) uptake in the kidneys post-injection [3] | state of A1M found in blood and kidneys ([4]; 10, 20 and 60 minutes post-injection, 150 μg A1M i.v.) | time of highest amounts of A1M in kidneys and serum ([4]; Western blot, 10, 20 and 60 minutes post-injection) | time post-injection up to which A1M is intact, full-length ([4]; kidneys, i.v. injection) | fluorescence detection in kidney at 4 hours p.i. [5] | GFR (plasma creatinine) on simultaneous infusion of A1M ([1]; 150 μg A1M + 150 MBq 177Lu-DOTATATE, 1 and 8 days, highly significant after 8 days (P<0.01)) | proteinuria (urine albumin) on simultaneous A1M-treatment, after 1 day ([1]; 150 μg A1M + 150 MBq 177Lu-DOTATATE, 1 day) | significantly reduced proteinuria (urine albumin) on simultaneous A1M-treatment, after 8 days ([1]; 150 μg A1M + 150 MBq 177Lu-DOTATATE, 8 days) | T½ of transport across the vessel walls to the extravascular compartment [6] | uptake in the kidneys (biodistribution) [3] | fraction of i.v. administered substance localized in kidneys [7] |
| --- | --- | --- | --- | --- | --- | --- | --- | --- | --- | --- | --- | --- | --- | --- | --- |
| C[C@@H](O)[C@H](NC(=O)[C@@H]1CSSC[C@H](NC(=O)[C@@H](Cc2ccccc2)NC(=O)CN2CCN(CC(=O)[O-])CCN(CC(=O)[O-])CCN(CC(=O)[O-])CC2)C(=O)N[C@@H](Cc2ccc(O)cc2)C(=O)N[C@H](Cc2c[nH]c3ccccc23)C(=O)N[C@@H](CCCCN)C(=O)N[C@@H]([C@@H](C)O)C(=O)N1)C(=O)O.[177Lu+3] [^177Lu-DOTATATE, ^177Lu-DOTA0, Tyr3]octreotate, reference compound] | significantly increased | significantly elevated | 3.8 % per year |  |  |  |  |  |  |  |  |  |  |  |  |
| B1 |  |  |  | 76% | 10 min | intact, full-length | 10 min | ≥ 60 min | significant decrease | restored the GFR to control levels | significantly reduced | not | 2 to 3 min |  |  |
| B2 |  |  |  |  | 20 min |  |  |  |  |  |  |  |  | High uptake | > 30% |
